Values quoted from earlier work in article PMC9456187, “The Ambivalence of Connexin43 Gap Peptides in Cardioprotection of the Isolated Heart against Ischemic Injury” (International Journal of Molecular Sciences, 2022).

Test system: isolated subsarcolemmal mitochondria, calcium-induced mitochondrial permeability transition
Conditions: rat heart, Gap27 at substantially higher concentrations than in present study, ref [34]
Excerpt: The detailed mechanisms behind IPC are still debated, but multiple studies confirm that mitochondria play a crucial role in the observed infarct size limitation. IPC promotes translocation of signaling kinases to mitochondria, changes volume regulation of mitochondria, opens mitochondrial potassium channels and delays ROS-induced mitochondrial permeability transition. Connexin43 can be detected in subsarcolemmal mitochondria using immunoblotting of extracts from isolated mitochondria. The role of connexin43 in mitochondria has recently been reviewed ...

B1: Fibroblast growth factor 2: Fibroblast growth factor 2 triggers the protection of rat heart mitochondria (protein, UniProt P13109 10-154, looked up)
Fibroblast growth factor 2: PALPEDGGGAFPPGHFKDPKRLYCKNGGFFLRIHPDGRVDGVREKSDPHVKLQLQAEERGVVSIKGVCANRYLAMKEDGRLLASKCVTEECFFFERLESNNYNTYRSRKYSSWYVALKRTGQYKLGSKTGPGQKAILFLPMSAKS
  Effect on (FGF2-induced) protection of mitochondria against calcium-induced permeability transition (in words): triggers the protection of rat heart mitochondria
